B1: ORF 11: Rhodococcus erythropolis AN12 ORF 11 chnB monooxygenase, protein SEQ ID NO:28, expressed in E. coli (protein)
chain: MSPSPLPSVCIIGAGPTGITTAKRMKEFGIPFDCYEASDEVGGNWYYKNPNGMSACYQSLHIDTSKWRLAFEDFPVSADLPDFPHHSELFQYFKDYVEHFGLRESIIFNTSVVAAERDANGLWTVTRSDGEVRTYDVLMVCNGHHWDPNIPDYPGEFDGVLMHSHSYNDPFDPIDMRGKKVVVVGMGNSGLDIASELGQRYLADKLIVSARRGVWVLPKYLGGVPGDKLITPPWMPRGLRLFLSRRFLGKNLGTMEGYGLPKPDHRPFEAHPSASGEFLGRAGSGDITFKPAITKLDGKQVHFADGTAEDVDVVVCATGYNISFPFFDDPNLLPDKDNRFPLFKRMMKPGIDNLFFMGLAQPMPTLVNFAEQQSKLVAAYLTGKYQLPSANEMQEITKADEAYFLAPYYKSPRHTIQLEFDPYVRNMNKEIAKGTKRAAASGNKLPVAARAAAHELEKADRA
modifications: Rhodococcus erythropolis AN12
B2: ORF 18: Rhodococcus erythropolis AN12 ORF 18 chnB monooxygenase, protein SEQ ID NO:42, expressed in E. coli (protein)
chain: MSSRVNDGHIAIIGTGFSGLCMAIELKKKGIDDFVLYERADDVGGTWRDNTYPGAACDVPSVLYSYSFAQNPNWTRIFPPWSELLDYLRSVAAQYDLLPHIRFGVEVSEMRFDEDRLRWNIQFASGESVTAAVVVNGSGGLSNPYIPQLPGLESFEGAAFHSAKWRHDLDMSGRRVAVIGSGASAIQFVPEIAPHTETLHVFQRSPNWVMPRGDAALSPATRERFSRRPYRQRWLRWRTYWAFEKLASAFLGNRKLVEQYRSQALANLQQQVPDSDLRQKVTPDYDPGCKRRLISDDWYPALQRENVHLNTSGVSEIRPHSIIDSEGAEHEVDTLIFATGFQATSFLAPMKVFGREGVELSDSWREGAATKLGLASAAFPNLWFLNGPNTGLGHNSIIFMIEAQARYIASAVQYMRRKSITALELDRTVQTGSYAATQERMRRTVWASGGCDSWYQSADGRIDTLWPASTIEYWLRTRLFRKSDFHALTTGKG
modifications: Rhodococcus erythropolis AN12
B3: ORF 17: Rhodococcus erythropolis AN12 ORF 17 chnB monooxygenase, protein SEQ ID NO:40, expressed in E. coli (protein)
chain: MTQHVDVLIIGAGLSGIGAACHLIREQTGSTYAILERRENIGGTWDLFKYPGIRSDSDMLTFGFGFRPWIGTKVLADGASIRDYVEETAKEYGVTDHINFGRKVVAMDFDRTAAQWSVTVLVEATGETETWTANVLVGACGYYNYDKGYRPAFPGEDDFRGQIVHPQHWPEDLDYTGKKVVVIGSGATAITLIPSMAPTAGHVTMLQRSPTWIQALPSEDPVAKGLKLARVPDQIAYKIGRARNIALQRASFQLSRTNPKLAKKLFLAQIRLQLGKNVDLRHFTPSYNPWDQRLCVVPNGDLFKVLKSGKADIVTDRIATFTEKGIVTESGREIEADVIVTATGLNVQILGGATMSIDGEPVKLNETVAYKSVLYSDIPNFLMILGYTNASWTLKADLAASYLCRVLKIMRDRSYTTFEVHAEPEDFAEESLMGGALTSGYIQRGDGEMPRQGARGAWKVVNNYYRDRKLMHDAEIEDGVLQFSKVDIAVVPDSKVASA
modifications: Rhodococcus erythropolis AN12
B4: ORF 8: Rhodococcus erythropolis AN12 ORF 8 chnB monooxygenase, protein SEQ ID NO:22, expressed in E. coli (protein)
chain: MSTEGKYALIGAGPSGLAGARNLDRAGIAFDGFESHDDVGGLWDIDNPHSTVYESAHLISSKGTTAFAEFPMADSVADYPSHIELAEYFRDYADTHDLRRHFAFGTTVIDVLPVDSLWQVTTRSRSGETSVARYRGVIIANGTLSKPNIPTFRGDFTGTLMHTSEYRSAEIFRGKRVLVIGAGNSGCDIAVDAVHQAECVDLSVRRGYYFVPKYLFGRPSDTLNQGKPLPPWIKQRVDTLLLKQFTGDPVRFGFPAPDYKIYESHPVVNSLILHHIGHGDVHVRADVDRFEGKTVRFVDGSSADYDLVLCATGYHLDYPFIAREDLDWSGAAPDLFLNVASRRHDNLFVLGMVEASGLGWQGRYQQAELVAKLITARTEAPAAAREFSAAAAGPPPDLSGGYKYLKLGRMAYYVNKDAYRSAIRRHIGLLDAALTKGGQ
modifications: Rhodococcus erythropolis AN12
B5: ORF 9: Rhodococcus erythropolis AN12 ORF 9 chnB monooxygenase, protein SEQ ID NO:24, expressed in E. coli (protein)
chain: MVDIDPTSGPSAGDEETRTRRTRVVVIGAGFGGIGTAVRLKQSGIDDFVVLERAAEPGGTWQVNTYPGAQCDIPSILYSFSFAPNPNWTRLYPLQPEIYDYLRDCVHRFGLAGHFHCNQDVTEASWDEQAQIWRVHTAETVWEAQFLVAATGPFSAPATPDLPGLESFRGQMFHTADWNHDHDLRGERIAVVGTGASAVQIIPRLQPLADTLTVFQRTPTWILPHPDQPMTGWPSALFERVPLTQRLARKGLDLLQEALVPGFVYKPSLLKGLAALGRAHLRRQVRDPELRAKLLPHYAFGCKRPTFSNTYYPALASPNVEVVTDGIVEVQERGVLTADGAFREVDTIVMGTGFRMGDNPSFDTIRGQDGRSLAQTWNGSAEAFLGTTISGFPNFFMILGPNSVVYTSQVVTIEAQVEYIVSCILQMDERGIGSIDVRADVQREFVRATDRRLATSVWNAGGCSSYYLVDGGRNYTFYPGFNRSFRARTKRADLAHYAQVQPVSSAALTTARETVRSR
modifications: Rhodococcus erythropolis AN12
B6: ORF 12: Rhodococcus erythropolis AN12 ORF 12 chnB monooxygenase, protein SEQ ID NO:30, expressed in E. coli (protein)
chain: VNNESDHFEVVIIGGGISGIGAAIHLQRLGIDNFALLEKADSLGGTWRANTYPGCACDVPSGLYSYSFAANPDWTRLFAEQPEIREYIENTAGTHGVDKHVRFGVEMLSARWDASQSLWKITTSSGELTARFVIAAAGPWNEPLTPAIPGLEAFEGEVFHSSQWNHDYDLTGKLVAVVGTGASAVQFVPRIVSQVSALHLYQRTAQWVLPKPDHYVPRIERSVMRFVPGAQKALRSIEYGIMEALGLGFRNPWILRIVQKLGSAQLRLQVRDPKLRKALTPDYTLGCKRLLMSNSYYPALGKPNVSVHANAVEQIRGNTVIGADGVEAEVDAIIFGTGFHILDMPIASKVFDGEGRSLDDHWQGSPQAYFGSAVSGFPNAFILLGPSLGTGHTSAFMILEAQLNYVAQAIGHARRHGWQTIDVREEVQAAFNSQVQEALGTTVYNAGGCESYFFDVNGRNSFNWPWSSGAMRRRLRDFDPYAYNHTSNPESDNTPPEPTPSEPTPSEPTPSEPTTSPEPEYTA
modifications: Rhodococcus erythropolis AN12
B7: ORF 16: Rhodococcus erythropolis AN12 ORF 16 chnB monooxygenase, protein SEQ ID NO:38, expressed in E. coli (protein)
chain: VKLPEHVETLIVGAGFAGMGLAARMLRDNRTADVVLIERGADIGGTWRDNTYPGCACDVPTALYSYSFAPSADWSHTFARQPEIYDYLKKVAADTGIGDRVILNCELEAAVWDEDAALWRVRTSLGSLTVKALVAATGALSTPKIPDFPGLDQFSGTTFHSATWNHEHELRGERVAVIGTGASAVQFVPEIADPAAHVTVFQRTPAWVIPRMDRTLPAAQKAVYSRIPATQKVVRGAVYGFRELLGAAMSHATWVLPAFEAAARLHLRRQVKDPELRRKLTPDFTIGCKRMLLSNDWLRTLDRADVSLVDSGLVSVTEGGVVDGHGVEHKVDTIIFATGFTPTEPPVAHLITGKRGETLAAHWNGSPNAYKGTAVSGFPNLFLMYGPNTNLGHSSIVYMLESQAEYVNDALNTMKRERLDALDVNESVQVHYNKGIQHELQHTVWNKGGCSSWYIDPEGRNSVQWPTFTFKFRSLLEHFDRENYSARKIESVQA
modifications: Rhodococcus erythropolis AN12

Assay: Conversion of cyclohexanone to caprolactone by E. coli clones expressing Rhodococcus erythropolis AN12 monooxygenases, GC-MS detection
Type: cell-based, Escherichia coli
Conditions: 500 mg/L cyclohexanone, 0.1 mM IPTG, overnight at 24° C., GC-MS of ethylacetate extract
Experimental: Following amplification, the gene fragments were cloned into pTrcHis-TOPO TA vectors with either an N-terminal tail or C-terminal tail, as provided by the vector sequence. These vectors were transformed into E. coli, with transformants grown in Luria-Bertani broth supplemented with ampicillin (100 ug/ml).
The chnB monooxygenase activity of each expressed enzyme from Example 9 was tested for activity according to its ability to convert cyclohexanone to caprolactone.
Clones containing the full length monooxygenase genes were transferred from LB agar plate to 5 mL of M63 minimal media (GIBCO) containing 10 mM glycerol, 50 ug/mL ampicillin, 0.1 mM IPTG, and 500 mg/L cyclohexanone. In addition to the clones containing full length monooxygenases, a plasmid without an insert and a “no cell” control were also assayed. The encoded monooxygenase sequences were expressed upon addition of IPTG to the culture media. The cultures were incubated overnight at room temperature (24° C.). Samples (1.25 mL) for analysis were taken immediately after inoculation and after overnight incubation; cells were removed by centrifugation (4° C., 13,000 rpm).
Caprolactone formed by the action of the cloned monooxygenase was extracted from the aqueous phase with ethylacetate (1.0 ml aqueous/0.5 mL ethylacetate). Caprolactone was detected by gas chromotagraphy mass spectrometry (GC-MS) analysis, using an Agilent 6890 Gas chromatograph system.
The analysis of the ethylacetate phase was performed by injecting 1 uL of the ethyl acetate phase into the GC. The inlet temperature was 115° C. and the column temperature profile was 50° C. for 4 min and ramped to 250° C. at 20° C./min, for a total run time of 14 min. The compounds were separated with an Hewlet Packard HP-5MS (5% phenyl Methyl Siloxane) column (30 m length, 250 um diameter, and 0.25 um film thickness). The mass spectrometer was run in Electron Ionization mode. The background mass spectra was subtracted from the spectra at the retention time of caprolactone (9.857 min). Presence of caprolactone was confirmed by comparison of the test reactions to an authentic standard obtained from Aldrich Chemical Company (St. Louis, Mo.).
Results of these assays are shown below in Table 7, in terms of the presence or absence of detectable caprolactone formation according to the activity of each expressed BV monooxygenase enzyme.

Molecule | Formation of Caprolactone (ability to convert cyclohexanone to caprolactone)
B1 | Detected
B2 | Detected
B3 | Detected
B4 | Detected
B5 | Detected
B6 | Detected
B7 | Detected

Reference: US20040267001A1, “Genes encoding baeyer-villiger monooxygenases” (priority 2001, published 2004)
